Changes are numbered by the printed parent chain.
B1: NRC3_wobSeed26_DR1_T9A_o1 (dsDNA)
DNA 1: GCTCTAGTAGGTCAAAGGTCACACACTCGAAATGCGGCGATTGACAGCGTAGAATGAAGG
DNA 2: CCTTCATTCTACGCTGTCAATCGCCGCATTTCGAGTGTGTGACCTTTGACCTACTAGAGC
B2: NRC3_wobSeed45_DR1_T11G_o1 (dsDNA)
DNA 1: GCTGTCAAAGGTCAAAGGTAACGTAAGTATCCACACGCGATTGACAGCGTAGAATGAAGG
DNA 2: CCTTCATTCTACGCTGTCAATCGCGTGTGGATACTTACGTTACCTTTGACCTTTGACAGC
B3: NRC3_wobSeed42_DR1_A8G_o1 (dsDNA)
DNA 1: GCTATACGGGGTCAAAGGCCAGAGTACGAATGTCGAGCGATTGACAGCGTAGAATGAAGG
DNA 2: CCTTCATTCTACGCTGTCAATCGCTCGACATTCGTACTCTGGCCTTTGACCCCGTATAGC
B4: NRC3_wobSeed53_DR2_C8G_o1 (dsDNA)
DNA 1: GCCCTTAGGGGTCACGAGGTTATAGCACGACGAGCGGCGATTGACAGCGTAGAATGAAGG
DNA 2: CCTTCATTCTACGCTGTCAATCGCCGCTCGTCGTGCTATAACCTCGTGACCCCTAAGGGC
B5: NRC3_wobSeed34_DR1_G14A_o1 (dsDNA)
DNA 1: GCATCGAAAGGTCAAAGGTGAGTATACCCACCCGAAGCGATTGACAGCGTAGAATGAAGG
DNA 2: CCTTCATTCTACGCTGTCAATCGCTTCGGGTGGGTATACTCACCTTTGACCTTTCGATGC
B6: NRC3_wobSeed46_DR1_G13C_o1 (dsDNA)
DNA 1: GCTTACCAAGGTCAAAGGTCGTTGATGCACGCCTTGGCGATTGACAGCGTAGAATGAAGG
DNA 2: CCTTCATTCTACGCTGTCAATCGCCAAGGCGTGCATCAACGACCTTTGACCTTGGTAAGC
B7: NRC3_wobSeed26_DR1_T9G_o1 (dsDNA)
DNA 1: B1 DNA 1 with A9G
DNA 2: B1 DNA 2 with T52C
B8: NRC3_wobSeed45_DR1_A20T_o1 (dsDNA)
DNA 1: B2 DNA 1 with G11T, A20T
DNA 2: B2 DNA 2 with T41A, C50A
B9: NRC3_wobSeed28_DR1_C12T_o1 (dsDNA)
DNA 1: GCCCTACTGGGTCAAAGGTCATTGATTCCAATGCTCGCGATTGACAGCGTAGAATGAAGG
DNA 2: CCTTCATTCTACGCTGTCAATCGCGAGCATTGGAATCAATGACCTTTGACCCAGTAGGGC
B10: NRC3_wobSeed103_DR4_A13C_o1 (dsDNA)
DNA 1: GCGCATATAGGTCATACAAGGTGAAAGTCCGATTGTGCGATTGACAGCGTAGAATGAAGG
DNA 2: CCTTCATTCTACGCTGTCAATCGCACAATCGGACTTTCACCTTGTATGACCTATATGCGC
B11: NRC3_wobSeed97_DR4_A17T_o1 (dsDNA)
DNA 1: GCCAAACTAGGTCACGTAAGGTCAAAGTCGAATGACGCGATTGACAGCGTAGAATGAAGG
DNA 2: CCTTCATTCTACGCTGTCAATCGCGTCATTCGACTTTGACCTTACGTGACCTAGTTTGGC
B12: NRC3_wobSeed97_DR4_A17C_o1 (dsDNA)
DNA 1: B11 DNA 1 with T17C
DNA 2: B11 DNA 2 with A44G
B13: NRC3_wobSeed106_DR4_G15T_o1 (dsDNA)
DNA 1: GCCTCGAAAGGTCGTTTGAGGTGAGTATACGGATAAGCGATTGACAGCGTAGAATGAAGG
DNA 2: CCTTCATTCTACGCTGTCAATCGCTTATCCGTATACTCACCTCAAACGACCTTTCGAGGC
B14: NRC3_wobSeed98_DR4_G15A_o1 (dsDNA)
DNA 1: GCACTAGTTGGTCAACTGAGGTCACACACAATTCGGGCGATTGACAGCGTAGAATGAAGG
DNA 2: CCTTCATTCTACGCTGTCAATCGCCCGAATTGTGTGTGACCTCAGTTGACCAACTAGTGC
B15: NRC3_wobSeed117_DR4_A15C_o1 (dsDNA)
DNA 1: GCCGTCAAAGTTCACCTAAGGTAACGTAAAGCACGCGCGATTGACAGCGTAGAATGAAGG
DNA 2: CCTTCATTCTACGCTGTCAATCGCGCGTGCTTTACGTTACCTTAGGTGAACTTTGACGGC
B16: NRC3_wobSeed109_DR4_T26A_o1 (dsDNA)
DNA 1: GCCGTCCAAGGTCATAGGAGGTCAGAGAAGACAGATGCGATTGACAGCGTAGAATGAAGG
DNA 2: CCTTCATTCTACGCTGTCAATCGCATCTGTCTTCTCTGACCTCCTATGACCTTGGACGGC

What follows are binders tested against FXR:RXRa (Homo sapiens, UniProt Q96RI1;P19793 full;full) (assay: no ligand; PBM; 270 nM : 90 nM RXRa; PBS pH 7.4, 2% milk, 0.02% Triton X-100, 1 mM DTT, BSA, 0.4 mg/ml salmon testes DNA). Conditions: tags: His kept;His cleaved; copies: 1;1; label: surface-attached array probe.
Procedure, shortened: (§1)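 Ligand-free nuclear receptor dimers were applied to custom Agilent 4×180K protein-binding microarrays whose double-stranded probes carried direct-repeat seeds, single-nucleotide variants, half-site ablations and random human genomic background sequences in 34-nt variable regions. Incubation lasted 1 h. Binding z-scores were computed against the random background probes from regression-normalized fluorescence.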

FXR:RXRa, sequence (Q96RI1 whole entry, chain 1 of 2): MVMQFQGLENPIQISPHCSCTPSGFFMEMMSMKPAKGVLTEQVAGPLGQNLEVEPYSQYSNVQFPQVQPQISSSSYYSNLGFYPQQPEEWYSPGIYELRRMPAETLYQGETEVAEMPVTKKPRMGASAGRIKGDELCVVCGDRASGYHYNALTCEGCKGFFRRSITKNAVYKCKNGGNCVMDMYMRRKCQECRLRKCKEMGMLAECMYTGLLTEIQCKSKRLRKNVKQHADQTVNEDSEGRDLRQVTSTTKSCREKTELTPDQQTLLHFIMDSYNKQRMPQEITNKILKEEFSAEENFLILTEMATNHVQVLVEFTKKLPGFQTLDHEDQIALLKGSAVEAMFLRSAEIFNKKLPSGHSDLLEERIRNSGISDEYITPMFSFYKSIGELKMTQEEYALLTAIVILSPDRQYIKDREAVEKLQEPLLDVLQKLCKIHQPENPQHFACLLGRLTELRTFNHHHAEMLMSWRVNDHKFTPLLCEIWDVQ
FXR:RXRa, sequence (P19793 whole entry, chain 2 of 2): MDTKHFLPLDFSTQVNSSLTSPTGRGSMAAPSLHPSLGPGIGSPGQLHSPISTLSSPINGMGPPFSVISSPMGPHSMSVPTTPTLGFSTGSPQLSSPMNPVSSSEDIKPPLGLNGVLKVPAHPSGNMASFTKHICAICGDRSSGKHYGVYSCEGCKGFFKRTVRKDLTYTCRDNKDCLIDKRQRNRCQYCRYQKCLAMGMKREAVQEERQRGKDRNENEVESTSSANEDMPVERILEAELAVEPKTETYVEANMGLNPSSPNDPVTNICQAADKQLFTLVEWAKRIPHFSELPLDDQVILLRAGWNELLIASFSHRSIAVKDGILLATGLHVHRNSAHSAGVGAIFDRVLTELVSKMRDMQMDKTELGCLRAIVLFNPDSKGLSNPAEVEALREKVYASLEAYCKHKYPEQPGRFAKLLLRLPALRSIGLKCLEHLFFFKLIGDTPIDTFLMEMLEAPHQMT

Binder	binding signal
B1	8.25 PBM z-score against 500 random probes
B2	9.11 PBM z-score against 500 random probes
B3	8.52 PBM z-score against 500 random probes
B4	8.88 PBM z-score against 500 random probes
B5	8.87 PBM z-score against 500 random probes
B6	8.17 PBM z-score against 500 random probes

These binders were tested against RARa:RXRa (Homo sapiens, UniProt P10276;P19793 full;full) in the same assay as above. Conditions: tags: His kept;His cleaved; copies: 1;1; label: surface-attached array probe.
Procedure, shortened: as §1

Binder	binding signal
B1	9.28 PBM z-score against 500 random probes
B7	8.89 PBM z-score against 500 random probes
B8	8.47 PBM z-score against 500 random probes
B2	8.2 PBM z-score against 500 random probes
B3	7.79 PBM z-score against 500 random probes
B4	8.32 PBM z-score against 500 random probes
B5	8.66 PBM z-score against 500 random probes
B9	8.75 PBM z-score against 500 random probes
B6	8.61 PBM z-score against 500 random probes

What follows are binders tested against PPARa:RXRa (Homo sapiens, UniProt Q07869;P19793 full;full) in the same assay as above. Conditions: tags: GST kept;His cleaved; copies: 1;1; label: surface-attached array probe.
Procedure, shortened: as §1

Binder	binding signal
B1	7.46 PBM z-score against 500 random probes
B7	7.42 PBM z-score against 500 random probes
B8	6.95 PBM z-score against 500 random probes
B2	7.31 PBM z-score against 500 random probes
B3	7.07 PBM z-score against 500 random probes
B4	7.21 PBM z-score against 500 random probes
B5	7.53 PBM z-score against 500 random probes
B9	7.41 PBM z-score against 500 random probes
B6	6.85 PBM z-score against 500 random probes

Each binder was assayed against LXRa:RXRa (Homo sapiens, UniProt Q13133;P19793 full;full) in the same assay as above. Conditions: tags: His kept;His cleaved; copies: 1;1; label: surface-attached array probe.
Procedure, shortened: as §1

Binder	binding signal
B1	7.19 PBM z-score against 500 random probes
B7	6.72 PBM z-score against 500 random probes
B8	7.17 PBM z-score against 500 random probes
B2	7.81 PBM z-score against 500 random probes
B3	7.28 PBM z-score against 500 random probes
B4	7.02 PBM z-score against 500 random probes
B5	7.65 PBM z-score against 500 random probes
B9	6.6 PBM z-score against 500 random probes
B6	7.04 PBM z-score against 500 random probes

What follows are binders tested against PXR:RXRa (Homo sapiens, UniProt O75469;P19793 full;full) in the same assay as above. Conditions: tags: His kept;His cleaved; copies: 1;1; label: surface-attached array probe.
Procedure, shortened: as §1

PXR:RXRa, sequence (O75469 whole entry, chain 1 of 2): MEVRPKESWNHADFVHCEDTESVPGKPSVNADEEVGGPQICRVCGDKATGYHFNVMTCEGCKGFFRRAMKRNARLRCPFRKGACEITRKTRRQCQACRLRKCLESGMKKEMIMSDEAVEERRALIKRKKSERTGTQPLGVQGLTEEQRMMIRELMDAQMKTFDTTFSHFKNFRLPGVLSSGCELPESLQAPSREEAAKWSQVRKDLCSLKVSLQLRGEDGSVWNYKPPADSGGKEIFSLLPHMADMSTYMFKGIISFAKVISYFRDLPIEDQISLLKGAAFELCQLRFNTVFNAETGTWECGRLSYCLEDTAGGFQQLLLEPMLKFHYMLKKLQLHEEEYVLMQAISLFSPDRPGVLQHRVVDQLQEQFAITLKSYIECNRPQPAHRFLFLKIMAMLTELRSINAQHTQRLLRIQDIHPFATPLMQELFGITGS
PXR:RXRa, sequence (P19793 whole entry, chain 2 of 2): as the sequence (P19793 whole entry, chain 2 of 2) above

Binder	binding signal
B1	7.41 PBM z-score against 500 random probes
B7	6.94 PBM z-score against 500 random probes
B8	6.87 PBM z-score against 500 random probes
B2	6.66 PBM z-score against 500 random probes
B3	6.54 PBM z-score against 500 random probes
B4	6.73 PBM z-score against 500 random probes
B5	6.57 PBM z-score against 500 random probes
B9	7.26 PBM z-score against 500 random probes
B6	7 PBM z-score against 500 random probes

What follows are binders tested against RARg:RXRa (Homo sapiens, UniProt P13631;P19793 full;full) in the same assay as above. Conditions: tags: His kept;His cleaved; copies: 1;1; label: surface-attached array probe.
Procedure, shortened: as §1

Binder	binding signal
B1	8.88 PBM z-score against 500 random probes
B7	8.6 PBM z-score against 500 random probes
B8	7.83 PBM z-score against 500 random probes
B2	8.53 PBM z-score against 500 random probes
B3	7.59 PBM z-score against 500 random probes
B4	8.51 PBM z-score against 500 random probes
B5	8.43 PBM z-score against 500 random probes
B9	8.01 PBM z-score against 500 random probes
B6	7.78 PBM z-score against 500 random probes

Each binder was assayed against LXRb:RXRa (Homo sapiens, UniProt P55055;P19793 full;full) in the same assay as above. Conditions: tags: His kept;His cleaved; copies: 1;1; label: surface-attached array probe.
Procedure, shortened: as §1

LXRb:RXRa, sequence (P55055 whole entry, chain 1 of 2): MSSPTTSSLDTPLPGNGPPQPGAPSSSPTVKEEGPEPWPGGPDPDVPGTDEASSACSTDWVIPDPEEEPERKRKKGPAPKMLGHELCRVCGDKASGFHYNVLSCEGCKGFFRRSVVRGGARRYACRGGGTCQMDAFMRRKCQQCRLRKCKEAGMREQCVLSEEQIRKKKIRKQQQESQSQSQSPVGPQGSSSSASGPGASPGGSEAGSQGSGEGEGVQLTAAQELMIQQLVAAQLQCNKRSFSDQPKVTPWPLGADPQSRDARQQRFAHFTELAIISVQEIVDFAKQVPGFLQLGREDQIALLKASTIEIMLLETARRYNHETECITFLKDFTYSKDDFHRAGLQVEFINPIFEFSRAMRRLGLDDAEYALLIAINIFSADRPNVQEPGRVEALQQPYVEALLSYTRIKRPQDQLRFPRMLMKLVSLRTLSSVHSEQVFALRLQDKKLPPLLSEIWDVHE
LXRb:RXRa, sequence (P19793 whole entry, chain 2 of 2): as the sequence (P19793 whole entry, chain 2 of 2) above

Binder	binding signal
B1	6.9 PBM z-score against 500 random probes
B7	6.79 PBM z-score against 500 random probes
B8	5.93 PBM z-score against 500 random probes
B2	6.94 PBM z-score against 500 random probes
B3	7.1 PBM z-score against 500 random probes
B4	6.15 PBM z-score against 500 random probes
B5	6.85 PBM z-score against 500 random probes
B9	6.34 PBM z-score against 500 random probes
B6	6.04 PBM z-score against 500 random probes

The binders below were run against RARb:RXRa (Homo sapiens, UniProt P10826;P19793 full;full) in the same assay as above. Conditions: tags: His kept;His cleaved; copies: 1;1; label: surface-attached array probe.
Procedure, shortened: as §1

RARb:RXRa, sequence (P10826 whole entry, chain 1 of 2): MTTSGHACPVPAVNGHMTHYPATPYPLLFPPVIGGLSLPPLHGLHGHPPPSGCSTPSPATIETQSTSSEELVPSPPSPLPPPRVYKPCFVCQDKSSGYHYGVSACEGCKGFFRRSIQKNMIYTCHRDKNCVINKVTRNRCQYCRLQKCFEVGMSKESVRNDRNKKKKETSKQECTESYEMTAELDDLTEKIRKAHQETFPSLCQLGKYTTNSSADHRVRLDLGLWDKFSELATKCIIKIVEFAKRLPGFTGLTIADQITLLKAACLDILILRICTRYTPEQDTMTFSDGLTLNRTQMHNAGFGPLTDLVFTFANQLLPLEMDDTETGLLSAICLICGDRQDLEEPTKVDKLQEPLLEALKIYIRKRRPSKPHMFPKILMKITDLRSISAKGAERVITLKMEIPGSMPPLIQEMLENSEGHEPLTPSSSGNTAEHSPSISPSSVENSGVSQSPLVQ
RARb:RXRa, sequence (P19793 whole entry, chain 2 of 2): as the sequence (P19793 whole entry, chain 2 of 2) above

Binder	binding signal
B1	5.79 PBM z-score against 500 random probes
B7	5.62 PBM z-score against 500 random probes
B8	5.55 PBM z-score against 500 random probes
B2	6.49 PBM z-score against 500 random probes
B4	5.93 PBM z-score against 500 random probes
B5	6.19 PBM z-score against 500 random probes
B9	5.54 PBM z-score against 500 random probes
B6	5.44 PBM z-score against 500 random probes

The binders below were run against VDR:RXRa (Homo sapiens, UniProt P11473;P19793 full;full) in the same assay as above. Conditions: tags: His kept;His cleaved; copies: 1;1; label: surface-attached array probe.
Procedure, shortened: as §1

Binder	binding signal
B1	6.79 PBM z-score against 500 random probes
B7	7 PBM z-score against 500 random probes
B3	6.76 PBM z-score against 500 random probes
B4	7.15 PBM z-score against 500 random probes
B9	6.8 PBM z-score against 500 random probes

The binders below were run against RXRa (Homo sapiens, UniProt P19793) (assay: no ligand; PBM; 180 nM; PBS pH 7.4, 2% milk, 0.02% Triton X-100, 1 mM DTT, BSA, 0.4 mg/ml salmon testes DNA). Conditions: tags: His cleaved; chain copies: 2; label: surface-attached array probe.

Binder	binding signal
B1	10.5 PBM z-score against 500 random probes
B7	10.2 PBM z-score against 500 random probes
B8	9.74 PBM z-score against 500 random probes
B2	10.1 PBM z-score against 500 random probes
B3	9.41 PBM z-score against 500 random probes
B4	10.1 PBM z-score against 500 random probes
B5	10.1 PBM z-score against 500 random probes
B9	9.56 PBM z-score against 500 random probes
B6	9.65 PBM z-score against 500 random probes

The binders below were run against THRa:RXRa (Homo sapiens, UniProt P10827;P19793 full;full) (assay: no ligand; PBM; 90 nM : 90 nM RXRa; PBS pH 7.4, 2% milk, 0.02% Triton X-100, 1 mM DTT, BSA, 0.4 mg/ml salmon testes DNA). Conditions: tags: His kept;His cleaved; copies: 1;1; label: surface-attached array probe.
THRa:RXRa, sequence (P10827 other isoform, or with tags, fused parts or gaps, chain 1 of 2): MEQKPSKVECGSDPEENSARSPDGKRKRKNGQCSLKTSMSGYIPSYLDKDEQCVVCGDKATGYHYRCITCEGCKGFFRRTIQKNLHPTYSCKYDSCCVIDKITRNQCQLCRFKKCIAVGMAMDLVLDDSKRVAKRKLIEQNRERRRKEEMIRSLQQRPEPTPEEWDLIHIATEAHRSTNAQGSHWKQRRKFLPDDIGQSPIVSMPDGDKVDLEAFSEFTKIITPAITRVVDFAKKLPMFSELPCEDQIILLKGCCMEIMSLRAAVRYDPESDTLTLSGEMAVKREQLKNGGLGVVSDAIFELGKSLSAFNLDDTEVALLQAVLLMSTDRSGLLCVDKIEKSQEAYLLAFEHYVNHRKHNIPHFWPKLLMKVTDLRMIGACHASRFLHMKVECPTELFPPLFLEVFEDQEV
THRa:RXRa, sequence (P19793 whole entry, chain 2 of 2): as the sequence (P19793 whole entry, chain 2 of 2) above

Binder	binding signal
B10	5.57 PBM z-score against 500 random probes
B11	5.77 PBM z-score against 500 random probes
B12	5.55 PBM z-score against 500 random probes
B13	5.63 PBM z-score against 500 random probes
B14	5.62 PBM z-score against 500 random probes
B15	5.54 PBM z-score against 500 random probes
B16	5.62 PBM z-score against 500 random probes

These binders were tested against PPARg:RXRa (Homo sapiens, UniProt P37231;P19793 full;full) (assay: no ligand; PBM; 180 nM : 90 nM RXRa; PBS pH 7.4, 2% milk, 0.02% Triton X-100, 1 mM DTT, BSA, 0.4 mg/ml salmon testes DNA). Conditions: tags: His kept;His cleaved; copies: 1;1; label: surface-attached array probe.

Binder	binding signal
B1	14.4 PBM z-score against 500 random probes
B7	13.8 PBM z-score against 500 random probes
B8	9.98 PBM z-score against 500 random probes
B2	12.1 PBM z-score against 500 random probes
B3	10.7 PBM z-score against 500 random probes
B4	10.3 PBM z-score against 500 random probes
B5	10 PBM z-score against 500 random probes
B9	13.5 PBM z-score against 500 random probes
B6	10.5 PBM z-score against 500 random probes
